Experimental findings from publication PMC6041441, “WRKY1 acts as a key component improving resistance against Alternaria solani in wild tomato, Solanum arcanum Peralta” are described below.

The target of this data set is T1, rSaWRKY1 (Solanum arcanum Peralta (accession not …, UniProt A0A1P8NTG4 1-410)).
T1 sequence: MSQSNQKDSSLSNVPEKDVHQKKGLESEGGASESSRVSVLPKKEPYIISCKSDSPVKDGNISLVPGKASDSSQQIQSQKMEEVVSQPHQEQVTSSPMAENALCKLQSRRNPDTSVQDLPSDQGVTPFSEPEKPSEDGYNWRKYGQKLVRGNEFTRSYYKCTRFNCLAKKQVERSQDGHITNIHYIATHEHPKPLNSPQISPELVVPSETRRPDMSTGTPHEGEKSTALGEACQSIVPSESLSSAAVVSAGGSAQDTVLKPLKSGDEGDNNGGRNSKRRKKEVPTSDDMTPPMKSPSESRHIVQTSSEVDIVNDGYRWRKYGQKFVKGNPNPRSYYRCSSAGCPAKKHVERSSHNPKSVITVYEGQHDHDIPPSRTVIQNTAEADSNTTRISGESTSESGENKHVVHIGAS
Put plainly: EMSA; 10 ug protein; 10x binding buffer: 0.10 mg/mL BSA, 1 mM DTT, 10 mM EDTA, 50% glycerol, 1 M KCl, 100 mM Tris-HCl pH 7.5 (stock as printed; working dilution not stated); 25 C, 30 min; 2% agarose gel, GelRed. The following applies: protein: recombinant; recombinant protein 62.6 kDa; label: none (GelRed stain); blunt.

B1: 4xW-box (dsDNA)
DNA 1: AAAAAATTGACCAAATTGACTCCAATTGACCAAATTGACCAAACACCACCTCCCACCTATAAAAAA
DNA 2: TTTTTTATAGGTGGGAGGTGGTGTTTGGTCAATTTGGTCAATTGGAGTCAATTTGGTCAATTTTTT
Turning to B1, the binding result is “binds”.

B2: mutated 4xW-box (4xmWbox) (dsDNA)
DNA 1: AAAAAATTTACCAAATTTACTCCAATTTACCAAATTTACCAAACACCACCTCCCACCTATAAAAAA
DNA 2: TTTTTTATAGGTGGGAGGTGGTGTTTGGTAAATTTGGTAAATTGGAGTAAATTTGGTAAATTTTTT
Take B2: the binding result is reported as “no binding”.
